This is an account of results in patent publication US9777309B2, “High throughput assay for monitoring AMP production and aminoacyl-tRNA synthetase activity” (Board of Supervisors of Louisiana State University and …, priority 2014, dated 2017).

Common to all, as to test: purified protein, by the assay type
Substrate in data set [1]: Nc1ncnc2c1ncn2[C@@H]1O[C@H](COP(=O)(O)O)[C@@H](O)[C@H]1O
The class given is biochemical, Saccharomyces cerevisiae. The note with it: other: pH 7.2, 2 mM ATP, 3 μM IMP dehydrogenase, 25° C., standard error in parenthesis.

Substrate in data set [2]: N[C@@H](Cc1ccc(O)cc1)C(=O)O
The note with it: other: 10 mM MgATP, saturating tRNA^Tyr, 25° C., L-Tyr with cyclodityrosine synthase, D-Tyr with D-tyrosyl-tRNA deacylase, pH 7.78.

Substrate in data set [3]: N[C@H](Cc1ccc(O)cc1)C(=O)O
Conditions: other: 10 mM MgATP, saturating tRNA^Tyr, 25° C., L-Tyr with cyclodityrosine synthase, D-Tyr with D-tyrosyl-tRNA deacylase, pH 7.78.

B1: AMP deaminase (Saccharomyces cerevisiae S288C) (protein)
chain: MDNQATQRLNDLSLEPAPSHDEQDGSGLVIDIDQRKIGDEQAGVVVDDETPPLEQQDSHESLAADSRNANFSYHENQQLLENGTKQLALDEHDSHSAILEQPSHSTNCSSSNIAAMNKGHDSADHASQNSGGKPRTLSASAQHILPETLKSFAGAPVVNKQVRTSASYKMGMLADDASQQFLDDPSSELIDLYSKVAECRNLRAKYQTISVQNDDQNPKNKPGWVVYPPPPKPSYNSDTKTVVPVTNKPDAEVFDFTKCEIPGEDPDWEFTLNDDDSYVVHRSGKTDELIAQIPTLRDYYLDLEKMISISSDGPAKSFAYRRLQYLEARWNLYYLLNEYQETSVSKRNPHRDFYNVRKVDTHVHHSACMNQKHLLRFIKHKLRHSKDEKVIFRDGKLLTLDEVFRSLHLTGYDLSIDTLDMHAHKDTFHRFDKFNLKYNPIGESRLREIFLKTNNYIKGTYLADITKQVIFDLENSKYQNCEYRISVYGRSLDEWDKLASWVIDNKVISHNVRWLVQIPRLYDIYKKTGIVQSFQDICKNLFQPLFEVTKNPQSHPKLHVFLQRVIGFDSVDDESKVDRRFHRKYPKPSLWEAPQNPPYSYYLYYLYSNVASLNQWRAKRGFNTLVLRPHCGEAGDPEHLVSAYLLAHGISHGILLRKVPFVQYLYYLDQVGIAMSPLSNNALFLTYDKNPFPRYFKRGLNVSLSTDDPLQFSYTREPLIEEYSVAAQIYKLSNVDMCELARNSVLQSGWEAQIKKHWIGKDFDKSGVEGNDVVRTNVPDIRINYRYDTLSTELELVNHFANFKRTIEEK
B1: in data set [1], the Km was 0.4 (±0.1) mM and the kcat was 21 (±4) s^−1.

B2: G. stearothermophilus tyrosyl-tRNA synthetase (Geobacillus stearothermophilus) (protein)
chain: MDLLAELQWRGLVNQTTDEDGLRKLLNEERVTLYCGFDPTADSLHIGHLATILTMRRFQQAGHRPIALVGGATGLIGDPSGKKSERTLNAKETVEAWSARIKEQLGRFLDFEADGNPAKIKNNYDWIGPLDVITFLRDVGKHFSVNYMMAKESVQSRIETGISFTEFSYMMLQAYDFLRLYETEGCRLQIGGSDQWGNITAGLELIRKTKGEARAFGLTIPLVTKADGTKFGKTESGTIWLDKEKTSPYEFYQFWINTDDRDVIRYLKYFTFLSKEEIEALEQELREAPEKRAAQKTLAEEVTKLVHGEEALRQAIRISEALFSGDIANLTAAEIEQGFKDVPSFVHEGGDVPLVELLVSAGISPSKRQAREDIQNGAIYVNGERLQDVGAILTAEHRLEGRFTVIRRGKKKYYLIRYA
Regarding B2, the figures for the Km in data set [2] and in data set [3] were 24 (±3) μM and 23 (±6) μM, respectively.
